Test results from article PMC3905015.

Biological target: monomeric red fluorescent protein (mRFP)
Assay: native MS; ESI-TWIMS-MS (nanoESI, Synapt HDMS), purified protein in 50 mM ammonium acetate; gas phase; self-association

Substance: monomeric red fluorescent protein (mRFP)
- stoichiometry N: 2
